In patent US20190111149A1, “ANTI-EGFR ANTIBODY DRUG CONJUGATE” (priority 2016, published 2019):

Legend:
[1] = biological target: MBI_CD19_1; (SAR3419); test: BLI Octet, antibody on anti-human Fc tip, peptide […]
[2] = biological target: MBI_CD19_2; (MOR208); test: as above
[3] = biological target: Meditope enabled Clivatuzumab; test: as above
[4] = biological target: Meditope enabled Ocaratuzumab; test: as above
[5] = biological target: Photo optimized trastuzumab; meditope enabled (Tmab); test: as above
[6] = biological target: MBI_CD19_1; (SAR3419); test: BLI Octet, antibody on anti-human Fc tip, peptide 37 nM
[7] = biological target: MBI_CD19_2; (MOR208); test: as above
[8] = biological target: Meditope enabled Ocaratuzumab; test: as above
[9] = biological target: Photo optimized trastuzumab; meditope enabled (Tmab); test: as above
[10] = biological target: MBI_CD19_1; (SAR3419); test: BLI Octet, antibody on anti-human Fc tip, peptide 333 nM
[11] = biological target: MBI_CD19_2; (MOR208); test: as above
[12] = biological target: Meditope enabled Clivatuzumab; test: as above
[13] = biological target: Photo optimized trastuzumab; meditope enabled (Tmab); test: as above

Sequence of MBI_CD19_2; (MOR208) (chain, as listed by the source, chain 1 of 2): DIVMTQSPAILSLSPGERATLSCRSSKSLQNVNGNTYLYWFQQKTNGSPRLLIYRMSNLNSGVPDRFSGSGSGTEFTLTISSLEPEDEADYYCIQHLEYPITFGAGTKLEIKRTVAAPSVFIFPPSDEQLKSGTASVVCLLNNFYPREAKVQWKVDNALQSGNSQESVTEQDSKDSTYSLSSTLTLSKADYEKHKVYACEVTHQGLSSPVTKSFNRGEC
Sequence of MBI_CD19_2; (MOR208) (chain, as listed by the source, chain 2 of 2): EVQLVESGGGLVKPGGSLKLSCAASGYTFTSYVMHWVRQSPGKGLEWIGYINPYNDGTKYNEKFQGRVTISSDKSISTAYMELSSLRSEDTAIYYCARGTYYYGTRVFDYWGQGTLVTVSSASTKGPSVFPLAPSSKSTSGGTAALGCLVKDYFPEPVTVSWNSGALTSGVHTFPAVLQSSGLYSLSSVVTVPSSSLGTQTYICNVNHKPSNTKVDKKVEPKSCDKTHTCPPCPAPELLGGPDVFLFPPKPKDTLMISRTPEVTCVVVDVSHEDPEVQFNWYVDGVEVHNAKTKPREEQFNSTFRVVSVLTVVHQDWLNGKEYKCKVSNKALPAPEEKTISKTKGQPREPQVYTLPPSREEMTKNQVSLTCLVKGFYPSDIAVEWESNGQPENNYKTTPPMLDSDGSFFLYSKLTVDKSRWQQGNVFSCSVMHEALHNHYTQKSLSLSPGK
Sequence of MBI_CD19_1; (SAR3419) (chain, as listed by the source, chain 1 of 2): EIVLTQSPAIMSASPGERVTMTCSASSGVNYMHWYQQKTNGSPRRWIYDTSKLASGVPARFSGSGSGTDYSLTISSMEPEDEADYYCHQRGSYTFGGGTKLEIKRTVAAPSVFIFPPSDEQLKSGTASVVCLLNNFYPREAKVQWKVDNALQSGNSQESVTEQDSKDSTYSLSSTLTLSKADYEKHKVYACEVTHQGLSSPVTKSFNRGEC
Sequence of MBI_CD19_1; (SAR3419) (chain, as listed by the source, chain 2 of 2): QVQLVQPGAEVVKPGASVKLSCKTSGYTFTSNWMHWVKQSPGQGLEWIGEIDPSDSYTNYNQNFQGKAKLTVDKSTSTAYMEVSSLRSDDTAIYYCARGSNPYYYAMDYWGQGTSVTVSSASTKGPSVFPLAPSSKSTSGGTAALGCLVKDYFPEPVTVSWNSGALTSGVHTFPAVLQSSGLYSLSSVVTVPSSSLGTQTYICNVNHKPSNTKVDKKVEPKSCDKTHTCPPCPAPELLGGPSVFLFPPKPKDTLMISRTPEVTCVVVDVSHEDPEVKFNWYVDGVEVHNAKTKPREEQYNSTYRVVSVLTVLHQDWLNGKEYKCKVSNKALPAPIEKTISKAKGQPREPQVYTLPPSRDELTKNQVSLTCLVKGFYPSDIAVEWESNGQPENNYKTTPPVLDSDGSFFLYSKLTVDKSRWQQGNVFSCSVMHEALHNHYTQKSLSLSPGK
Sequence of Photo optimized trastuzumab; meditope enabled (Tmab) (chain, as listed by the source, chain 1 of 2): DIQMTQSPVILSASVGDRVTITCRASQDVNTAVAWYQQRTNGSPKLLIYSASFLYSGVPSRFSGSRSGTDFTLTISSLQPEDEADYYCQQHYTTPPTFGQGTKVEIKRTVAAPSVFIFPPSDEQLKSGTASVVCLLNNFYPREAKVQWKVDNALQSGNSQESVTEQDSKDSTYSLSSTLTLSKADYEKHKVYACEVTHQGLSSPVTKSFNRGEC
Sequence of Photo optimized trastuzumab; meditope enabled (Tmab) (chain, as listed by the source, chain 2 of 2): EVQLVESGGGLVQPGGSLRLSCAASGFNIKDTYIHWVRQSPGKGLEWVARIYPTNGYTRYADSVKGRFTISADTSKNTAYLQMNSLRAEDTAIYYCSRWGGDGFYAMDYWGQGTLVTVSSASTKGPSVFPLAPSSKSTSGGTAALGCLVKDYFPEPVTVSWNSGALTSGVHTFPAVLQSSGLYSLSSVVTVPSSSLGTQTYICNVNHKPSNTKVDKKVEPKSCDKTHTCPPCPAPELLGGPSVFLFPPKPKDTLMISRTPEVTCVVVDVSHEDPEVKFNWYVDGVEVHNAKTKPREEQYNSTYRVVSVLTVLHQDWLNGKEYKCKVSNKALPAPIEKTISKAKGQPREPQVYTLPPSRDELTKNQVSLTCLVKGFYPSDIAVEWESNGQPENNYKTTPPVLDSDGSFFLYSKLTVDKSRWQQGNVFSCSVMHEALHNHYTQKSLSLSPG
Sequence of Meditope enabled Clivatuzumab (chain, as listed by the source, chain 1 of 2): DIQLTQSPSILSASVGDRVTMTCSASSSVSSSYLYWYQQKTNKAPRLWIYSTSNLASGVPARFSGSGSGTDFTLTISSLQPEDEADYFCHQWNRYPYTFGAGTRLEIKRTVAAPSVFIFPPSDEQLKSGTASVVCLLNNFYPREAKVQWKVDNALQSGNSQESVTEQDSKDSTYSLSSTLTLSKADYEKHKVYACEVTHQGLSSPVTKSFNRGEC
Sequence of Meditope enabled Clivatuzumab (chain, as listed by the source, chain 2 of 2): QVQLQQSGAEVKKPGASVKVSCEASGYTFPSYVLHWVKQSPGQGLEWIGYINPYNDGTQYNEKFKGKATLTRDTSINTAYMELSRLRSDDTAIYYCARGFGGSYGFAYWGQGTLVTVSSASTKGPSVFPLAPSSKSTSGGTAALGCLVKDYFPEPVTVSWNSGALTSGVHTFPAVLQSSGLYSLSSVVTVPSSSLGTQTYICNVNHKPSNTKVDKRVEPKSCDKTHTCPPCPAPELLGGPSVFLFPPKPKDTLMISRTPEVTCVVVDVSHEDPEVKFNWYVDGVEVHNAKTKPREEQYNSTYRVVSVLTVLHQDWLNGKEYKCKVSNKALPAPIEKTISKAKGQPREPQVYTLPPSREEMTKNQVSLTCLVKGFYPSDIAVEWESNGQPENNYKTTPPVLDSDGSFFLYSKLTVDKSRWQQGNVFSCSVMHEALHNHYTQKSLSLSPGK
Sequence of Meditope enabled Ocaratuzumab (chain, as listed by the source, chain 1 of 2): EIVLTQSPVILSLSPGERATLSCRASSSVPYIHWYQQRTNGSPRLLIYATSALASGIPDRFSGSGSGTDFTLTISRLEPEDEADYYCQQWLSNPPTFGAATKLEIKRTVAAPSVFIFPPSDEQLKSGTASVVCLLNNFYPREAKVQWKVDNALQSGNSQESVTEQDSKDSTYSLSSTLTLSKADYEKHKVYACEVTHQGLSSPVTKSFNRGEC
Sequence of Meditope enabled Ocaratuzumab (chain, as listed by the source, chain 2 of 2): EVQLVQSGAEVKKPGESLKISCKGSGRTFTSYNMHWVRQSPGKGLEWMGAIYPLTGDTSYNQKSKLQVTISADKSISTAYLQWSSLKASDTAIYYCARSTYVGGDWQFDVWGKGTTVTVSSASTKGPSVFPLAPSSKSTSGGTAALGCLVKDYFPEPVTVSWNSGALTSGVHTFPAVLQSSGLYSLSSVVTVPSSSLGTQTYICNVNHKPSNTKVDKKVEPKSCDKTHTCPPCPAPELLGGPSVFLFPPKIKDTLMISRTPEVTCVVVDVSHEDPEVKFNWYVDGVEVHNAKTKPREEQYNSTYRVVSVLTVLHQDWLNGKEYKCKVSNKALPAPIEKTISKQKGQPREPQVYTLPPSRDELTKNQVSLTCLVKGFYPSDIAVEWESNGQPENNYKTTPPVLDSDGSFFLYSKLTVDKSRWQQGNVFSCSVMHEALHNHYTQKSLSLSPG

Kd [1]: < 0.001 nM
Kd [2]: 0.452 nM
Kd [3]: 3160 nM
Kd [4]: < 0.001 nM
Kd [5]: 1.88 nM
Kd [6]: < 0.001 nM
Kd [7]: < 0.001 nM
Kd [8]: < 0.001 nM
Kd [9]: 2.62 nM
Kd [10]: 5.23 nM
Kd [11]: < 0.001 nM
Kd [12]: 2.69 nM
Kd [13]: 1.63 nM
B1: Peptide 22: DM1 conjugated cQFD (cQFD-DM1) (peptide)
peptide: CQFDLSTRRLRC
modifications: not checked
